According to patent US20140274782A1 (Stanford University, published 2014):

Columns and labels:
[1] = biological target: T1, RelA mono-methylated at lysine 310 by SETD6 (293T cells) (UniProt Q04206 1-551, monomethyl-lysine at K310); experiment: GSH-Sepharose pull-down from 293T nuclear extract, Western blot
T1 construct: also called RelAK310me1; methylated RelA

[2] = biological target: recombinant H3 dimethylated at lysine 9 by G9a SET domain (UniProt P68431 2-136); experiment: Far Western on in vitro methylation reactions
[3] = biological target: T2, p53 mono-methylated at lysine 382 by SET8 (UniProt P04637 1-393, monomethyl-lysine at K382); experiment: Far Western on in vitro methylation reactions
T2 construct: also called p53K382me1; monomethylated p53

[4] = biological target: T3, biotinylated mono-methylated H4K20 peptide (H4 amino acids 1-23) (UniProt P62805 2-24, monomethyl-lysine at K20; biotinylated); experiment: peptide pull-down, Western blot
T3 construct: range 1-23; also called H4K20me1

[5] = biological target: T4, biotinylated di-methylated H4K20 peptide (H4 amino acids 1-23) (UniProt P62805 2-24, dimethyl-lysine at K20; biotinylated); experiment: peptide pull-down, Western blot
T4 construct: range 1-23; also called H4K20me2

[6] = biological target: T5, 3× Flag-SIRT1 methylated by G9a at lysine 622 (293T cells) (UniProt Q96EB6 1-747, methyl-lysine at K622 (state not stated)); experiment: GSH-Sepharose pull-down from 293T nuclear extract, anti-Flag Western blot
T5 construct: also called methylated SIRT1; not shown: 3× Flag tag of p3×FLAG-CMV-7
T5 sequence (looked up): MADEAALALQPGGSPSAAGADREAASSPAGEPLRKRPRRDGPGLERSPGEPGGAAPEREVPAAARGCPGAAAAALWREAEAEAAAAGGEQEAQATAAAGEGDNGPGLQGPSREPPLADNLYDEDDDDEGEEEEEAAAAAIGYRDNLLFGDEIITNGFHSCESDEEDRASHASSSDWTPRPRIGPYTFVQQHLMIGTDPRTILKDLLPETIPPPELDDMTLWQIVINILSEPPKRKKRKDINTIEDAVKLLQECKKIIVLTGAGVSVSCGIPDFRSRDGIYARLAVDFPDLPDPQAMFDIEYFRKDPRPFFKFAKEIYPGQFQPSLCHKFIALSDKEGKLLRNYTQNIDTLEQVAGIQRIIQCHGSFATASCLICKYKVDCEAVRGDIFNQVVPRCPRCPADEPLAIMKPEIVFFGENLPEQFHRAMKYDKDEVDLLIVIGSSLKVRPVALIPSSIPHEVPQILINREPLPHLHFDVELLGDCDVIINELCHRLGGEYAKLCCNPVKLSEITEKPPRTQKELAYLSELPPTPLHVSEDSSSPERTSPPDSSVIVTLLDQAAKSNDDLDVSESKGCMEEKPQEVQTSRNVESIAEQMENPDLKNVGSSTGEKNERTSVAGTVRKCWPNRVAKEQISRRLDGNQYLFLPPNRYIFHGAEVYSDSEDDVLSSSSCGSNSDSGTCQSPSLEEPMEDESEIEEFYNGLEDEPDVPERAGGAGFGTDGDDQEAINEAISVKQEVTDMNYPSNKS

[7] = biological target: H3 from HeLa nuclear extract (UniProt P68431 2-136); experiment: GSH-Sepharose pull-down from HeLa nuclear extract, Western blot
[8] = biological target: T3, biotinylated mono-methylated H4K20 …; experiment: peptide pull-down, α-Flag Western blot
[9] = biological target: T4, biotinylated di-methylated H4K20 …; experiment: peptide pull-down, α-Flag Western blot
[10] = biological target: T2, p53 mono-methylated at lysine 382 by …; experiment: Far Western, α-Flag detection (FIG. 9C)
[11] = biological target: T6, RelA carrying K310R substitution (UniProt Q04206 1-551); experiment: GSH-Sepharose pull-down from 293T nuclear extract, Western blot
T6 construct: also called RelAK310R

[12] = biological target: T7, recombinant p53 carrying K382R substitution (UniProt P04637 1-393); experiment: Far Western on in vitro methylation reactions
T7 construct: also called p53K382R

3× Flag-SIRT1K622R = biological target: T8, 3× Flag-SIRT1K622R (UniProt Q96EB6 1-747); experiment: GSH-Sepharose pull-down from 293T nuclear extract, anti-Flag Western blot
T8 construct: not shown: 3× Flag tag of p3×FLAG-CMV-7
T8 sequence (looked up): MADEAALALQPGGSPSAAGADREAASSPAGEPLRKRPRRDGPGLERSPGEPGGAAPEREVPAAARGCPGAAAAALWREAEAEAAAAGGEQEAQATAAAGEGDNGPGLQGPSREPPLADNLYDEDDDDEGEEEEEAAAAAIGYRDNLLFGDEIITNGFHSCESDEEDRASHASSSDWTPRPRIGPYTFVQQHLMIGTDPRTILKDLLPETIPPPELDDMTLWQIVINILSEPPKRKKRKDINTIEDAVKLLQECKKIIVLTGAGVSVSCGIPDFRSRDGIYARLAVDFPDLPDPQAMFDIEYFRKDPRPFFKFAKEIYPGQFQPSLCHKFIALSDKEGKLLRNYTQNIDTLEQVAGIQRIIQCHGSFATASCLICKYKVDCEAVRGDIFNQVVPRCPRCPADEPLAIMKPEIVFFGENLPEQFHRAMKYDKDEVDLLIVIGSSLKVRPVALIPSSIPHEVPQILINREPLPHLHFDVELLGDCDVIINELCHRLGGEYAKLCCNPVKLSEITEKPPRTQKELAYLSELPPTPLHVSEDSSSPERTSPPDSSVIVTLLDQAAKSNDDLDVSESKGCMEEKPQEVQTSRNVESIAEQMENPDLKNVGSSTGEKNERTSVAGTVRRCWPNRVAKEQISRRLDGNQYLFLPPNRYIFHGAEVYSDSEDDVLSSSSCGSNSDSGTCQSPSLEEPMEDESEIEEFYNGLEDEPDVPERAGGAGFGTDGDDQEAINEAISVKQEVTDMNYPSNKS

B1: GST-tagged 3×MBTD355N (methyllysine-binding mutant) (designed binder)
chain: EEWSSSQPATGEKKECWSWESYLEEQKAITAPVSLFQDSQAVTHNKNGFKLGMKLEGIDPQHPSMYFILTVAEVCGYRLRLHFDGYSECHDFWVNANSPDIHPAGWFEKTGHKLQPPKGYKEEEFSWSQYLRSTRAQAAPKHLFVSQSHSPPPLGFQVGMKLEAVNRMNPSLVCVASVTDVVDSRFLVHFDNWDDTYDYWCDPSSPYIHPVGWCQKQGKPLTPPQDYPDPDNFCWEKYLEETGASAVPTWAFKVRPPHSFLVNMKLEAVDRRNPALIRVASVEDVEDHRIKIHFDGWSHGYDFWIDADHPDIHPAGWCSKTGHPLQPPLGPREPSSASPGG
notes: Negative control; also called GST-3×MBTD355N; point-mutant; not shown: GST tag and PreScission linker of the pGEX6P1 vector at the N end
Question: Does B1 bind [1]?
Answer: Result: no binding

Question: Does B1 bind [2]?
Answer: Result: no binding

Question: Does B1 bind [3]?
Answer: Result: no binding

Question: Does B1 bind [4]?
Answer: Result: no binding (tested: 1 µg protein and 1 µg peptide)

Question: Does B1 bind [5]?
Answer: Result: no binding (tested: 1 µg protein and 1 µg peptide)

Question: Does B1 bind [6]?
Answer: Result: no binding

Question: Does B1 bind [7]?
Answer: Result: no binding

B2: 3×MBTD355N-Flag (C-terminally Flag-tagged 3×MBTD355N) (designed binder, not shown: small tags and cut ends)
chain: EEWSSSQPATGEKKECWSWESYLEEQKAITAPVSLFQDSQAVTHNKNGFKLGMKLEGIDPQHPSMYFILTVAEVCGYRLRLHFDGYSECHDFWVNANSPDIHPAGWFEKTGHKLQPPKGYKEEEFSWSQYLRSTRAQAAPKHLFVSQSHSPPPLGFQVGMKLEAVNRMNPSLVCVASVTDVVDSRFLVHFDNWDDTYDYWCDPSSPYIHPVGWCQKQGKPLTPPQDYPDPDNFCWEKYLEETGASAVPTWAFKVRPPHSFLVNMKLEAVDRRNPALIRVASVEDVEDHRIKIHFDGWSHGYDFWIDADHPDIHPAGWCSKTGHPLQPPLGPREPSSASPGG
Question: Does B2 bind [8]?
Answer: Result: no binding

Question: Does B2 bind [9]?
Answer: Result: no binding

B3: GST-3× Flag-3×MBTD355N (designed binder, not shown: a dimerising Fc or GST; small tags and cut ends)
chain: EEWSSSQPATGEKKECWSWESYLEEQKAITAPVSLFQDSQAVTHNKNGFKLGMKLEGIDPQHPSMYFILTVAEVCGYRLRLHFDGYSECHDFWVNANSPDIHPAGWFEKTGHKLQPPKGYKEEEFSWSQYLRSTRAQAAPKHLFVSQSHSPPPLGFQVGMKLEAVNRMNPSLVCVASVTDVVDSRFLVHFDNWDDTYDYWCDPSSPYIHPVGWCQKQGKPLTPPQDYPDPDNFCWEKYLEETGASAVPTWAFKVRPPHSFLVNMKLEAVDRRNPALIRVASVEDVEDHRIKIHFDGWSHGYDFWIDADHPDIHPAGWCSKTGHPLQPPLGPREPSSASPGG
Question: Does B3 bind [10]?
Answer: Result: no binding

B4: 3× Flag-3×MBTD355N (designed binder)
chain: EEWSSSQPATGEKKECWSWESYLEEQKAITAPVSLFQDSQAVTHNKNGFKLGMKLEGIDPQHPSMYFILTVAEVCGYRLRLHFDGYSECHDFWVNANSPDIHPAGWFEKTGHKLQPPKGYKEEEFSWSQYLRSTRAQAAPKHLFVSQSHSPPPLGFQVGMKLEAVNRMNPSLVCVASVTDVVDSRFLVHFDNWDDTYDYWCDPSSPYIHPVGWCQKQGKPLTPPQDYPDPDNFCWEKYLEETGASAVPTWAFKVRPPHSFLVNMKLEAVDRRNPALIRVASVEDVEDHRIKIHFDGWSHGYDFWIDADHPDIHPAGWCSKTGHPLQPPLGPREPSSASPGG
notes: also called N-terminally Flag-tagged 3×MBTD355N; not shown: made by PreScission cleavage of the GST version
Question: Does B4 bind [8]?
Answer: Result: no binding

Question: Does B4 bind [9]?
Answer: Result: no binding

Question: Does B4 bind [10]?
Answer: Result: no binding

B5: GST-tagged 3×MBT (three MBT repeats of L3MBTL1, amino acids 190-530, expressed as a GST fusion) (designed binder, not shown: a dimerising Fc or GST)
chain: EEWSSSQPATGEKKECWSWESYLEEQKAITAPVSLFQDSQAVTHNKNGFKLGMKLEGIDPQHPSMYFILTVAEVCGYRLRLHFDGYSECHDFWVNANSPDIHPAGWFEKTGHKLQPPKGYKEEEFSWSQYLRSTRAQAAPKHLFVSQSHSPPPLGFQVGMKLEAVDRMNPSLVCVASVTDVVDSRFLVHFDNWDDTYDYWCDPSSPYIHPVGWCQKQGKPLTPPQDYPDPDNFCWEKYLEETGASAVPTWAFKVRPPHSFLVNMKLEAVDRRNPALIRVASVEDVEDHRIKIHFDGWSHGYDFWIDADHPDIHPAGWCSKTGHPLQPPLGPREPSSASPGG
notes: Used in solution (peptide pull-down, Far Western, peptide array) and coupled to GSH-Sepharose (protein pull-down); also called GST-3×MBT; 3xMBT
Question: Which results are given for B5?
Answer: binding result [11]: no binding; binding result [12]: no binding; binding result (3× Flag-SIRT1K622R): no binding
